Test results: the supplement of paper PMC9170038

Tests used:
MS2 coat protein [1] = test: apparent KD of MS2 coat protein, switch ON state; designed switch direction (-1 OFF switch, 1 ON switch): -1; higher = weaker reporter binding; settings: FMN input: 0 or 200 uM; Eterna round: R93 (includes R88 designs)
Summary of the method: (§1)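 Illumina sequencing clusters were used for on-chip transcription of designed RNA switches. Titration with SNAP-549-labelled MS2 coat protein followed, in twofold steps from 0.7 or 1.5 nM to 3 µM in 100 mM Tris-HCl pH 7.5, 80 mM KCl, 4 mM MgCl2, without or with constant ligand. Apparent KD is each design's median of fits to normalised cluster binding curves.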

MS2 coat protein [2] = test: apparent KD of MS2 coat protein, switch OFF state (with FMN for OFF switches, without FMN for ON switches); designed switch direction (-1 OFF switch, 1 ON switch): -1; higher = weaker reporter binding; settings: FMN input: 0 or 200 uM; Eterna round: R93 (includes R88 designs)
Summary of the method: as §1

GGUUGGCGAGGAUAUACAUGAGGAUCACCCAUGUGAGAGAAAAAAGUGAGAAAGAUAAGUAGAAGGCGCUGACG [salish99-ex3-39]
apparent KD of MS2 coat protein (MS2 coat protein [1]): 80.3 nM
apparent KD of MS2 coat protein (MS2 coat protein [2]): 169 nM

GAAAGGGCAGGAUAUGCAGAGAGAGAGAGAGAGAGAAAAAAACAUGAGGAUCACCCAUGUAGAAGGGCCGAAAG [salish99-ex2-06]
apparent KD of MS2 coat protein (MS2 coat protein [1]): 38.5 nM
apparent KD of MS2 coat protein (MS2 coat protein [2]): 52.4 nM

AAGACUAGAGGAUAUACAUGAGGAUCACCCAUGUAACUGUCAGAAAACUGACGGAGAAGUAGAAGGCUAGUCAA [Mat - Exclusion 3 - JL mod - D86]
apparent KD of MS2 coat protein (MS2 coat protein [1]): 16.9 nM
apparent KD of MS2 coat protein (MS2 coat protein [2]): 21.2 nM

AGGAAACAUGAGGAUCACCCAUGUCAGGAUAUAUGAAAGAAAAGAAAAGAAAGAAGAAGUAGAAGGGACAAGAA [Ka]
apparent KD of MS2 coat protein (MS2 coat protein [1]): 29.8 nM
apparent KD of MS2 coat protein (MS2 coat protein [2]): 29.9 nM

AAAAAUCUAGGAUAUACAUGAGGAUCACCCAUGUAAGAAAAUGAUUACACAAAAGAAAGUAGAAGGAGAUAAAA [Ex 3 May 19]
apparent KD of MS2 coat protein (MS2 coat protein [1]): 17.4 nM
apparent KD of MS2 coat protein (MS2 coat protein [2]): 18.4 nM

AUAAAACAUGAGGAUCACCCAUGUCAGGAUAUACGAUAUUAAAUUUAAUAUAUUUAUAGUAGAAGGGACAAAUA [High Five]
apparent KD of MS2 coat protein (MS2 coat protein [1]): 31.6 nM
apparent KD of MS2 coat protein (MS2 coat protein [2]): 37.1 nM

AAAAAACAUGAGGAUCACCCAUGUAAGGAUAUGCCAACAAACAAACAAACAAAAAAAAGCAGAAGGUACAAAAA [Amethyst 70]
apparent KD of MS2 coat protein (MS2 coat protein [1]): 19.8 nM
apparent KD of MS2 coat protein (MS2 coat protein [2]): 24.1 nM

AACGAGUCAGGAUAUGCUAUAAAUUAAUAAAUAAAAUUAUAGCAGAAGGGACAUGAGGAUCACCCAUGUAAAUA [JR_Exc004_Sub201]
apparent KD of MS2 coat protein (MS2 coat protein [1]): 45.7 nM
apparent KD of MS2 coat protein (MS2 coat protein [2]): 42.2 nM

AAGAGGCGAGGAUAUACAUGAGGAUCACCCAUGUAAUCCGGAUAAGGAAGCAUGUCGUGUAGAAGGUGCCAUGA [water's exclusion 3 last]
apparent KD of MS2 coat protein (MS2 coat protein [1]): 19.2 nM
apparent KD of MS2 coat protein (MS2 coat protein [2]): 20.2 nM

AAAAAGUCAGGAUAUACGAAAGUGCGAAAGCACAAAAGGAAACAUGAGGAUCACCCAUGUAGAAGGGACAAGAA [Married to this design, 61% 1]
apparent KD of MS2 coat protein (MS2 coat protein [1]): 45.4 nM
apparent KD of MS2 coat protein (MS2 coat protein [2]): 32.8 nM

AAAAAGAAAGGAUAUACGAACAUGUCGAAAGACGUGAAGGGACAUGAGGAUCACCCAUGUAGAAGGUUUAAAAA [Mat - Exclusion 2 - JL mod - D82]
apparent KD of MS2 coat protein (MS2 coat protein [1]): 25.2 nM
apparent KD of MS2 coat protein (MS2 coat protein [2]): 17.9 nM

AAAAAGGGAGGAUAUACAUGAGGAUCACCCAUGUAAAAAAAAAAAAAAAAAAGGGAAGGUAGAAGGCCCAAAAA [Excls3-I]
apparent KD of MS2 coat protein (MS2 coat protein [1]): 64.6 nM
apparent KD of MS2 coat protein (MS2 coat protein [2]): 21.1 nM

AAGAAGUCAGGAUAUGGAAAAGAAAAGAAAAGAAAAGAAAACCAGAAGGGACAUGAGGAUCACCCAUGUAAGAA [Xerxes I the Great]
apparent KD of MS2 coat protein (MS2 coat protein [1]): 44.5 nM
apparent KD of MS2 coat protein (MS2 coat protein [2]): 28.1 nM

AUAGUACAUGAGGAUCACCCAUGUCAGGAUAUCGGAUGUGACAUGAAAAAAAUGUUAGUGAGAAGGGACUAUAA [EX1 Malc#18 Mod 3 - Jieux - Exclusion 1]
apparent KD of MS2 coat protein (MS2 coat protein [1]): 66.9 nM
apparent KD of MS2 coat protein (MS2 coat protein [2]): 111 nM

AUCUAGUGAGGAUAUCGUACAAUAUGGAAAACAUAGAGGUACGAGAAGGCACAUGAGGAUCACCCAUGUAAAAC [May 100]
apparent KD of MS2 coat protein (MS2 coat protein [1]): 26.8 nM
apparent KD of MS2 coat protein (MS2 coat protein [2]): 36.5 nM

AAAAAAAGAGGAUAUACGAACAUGUCAAAAGACGUGAAGGGACAUGAGGAUCACCCAUGUAGAAGGUUUAAAAA [JL Wide Open 29]
apparent KD of MS2 coat protein (MS2 coat protein [1]): 32.9 nM
apparent KD of MS2 coat protein (MS2 coat protein [2]): 15.5 nM

AUAAGUCGAGGAUAUACGAAAAGCUAGCGAAAGCUAGCGGGACAUGAGGAUCACCCAUGUAGAAGGCGACAAUA [Tetraloop hairpin BlockHead... 61% 5]
apparent KD of MS2 coat protein (MS2 coat protein [1]): 28.4 nM
apparent KD of MS2 coat protein (MS2 coat protein [2]): 57 nM

AACUGACAUGAGGAUCACCCAUGUCAGGAUAUGACAUCGAGAAAUAAAUAAAUCGUUGUCAGAAGGGACAUGAA [Design 79: Sub-opt TB]
apparent KD of MS2 coat protein (MS2 coat protein [1]): 17.5 nM
apparent KD of MS2 coat protein (MS2 coat protein [2]): 13.4 nM

AAGACUAGAGGAUAUACAUGAGGAUCACCCAUGUAACUGUCAGGUGACUGACGGAGAAGUAGAAGGCUAGUCAA [Mat - Exclusion 3 - JL mod - D83]
apparent KD of MS2 coat protein (MS2 coat protein [1]): 14.6 nM
apparent KD of MS2 coat protein (MS2 coat protein [2]): 19.9 nM
